Earlier results on 1 substance are cited in patent US20110171162A1, “POLYMER CONJUGATES OF THYMOSIN ALPHA 1 PEPTIDES” (NEKTAR THERAPEUTICS, priority 2008, published 2011).

The conditions of this data set: in human plasma.

“thymosin alpha 1: Twenty-eight amino acid peptide, SEQ ID NO: 1 (SDAAVDTSSEITTKDLKEKKEVVEEAEN); sold as ZADAXIN thymosin alpha 1, injection (thymalfasin) (listed as Homo sapiens)”: the half-life result is “approximately two”.
